Test results published in IntAct's records for PubMed 19037259.

Legend:
[1] = biological target: vac14_yeast VAC14 (UniProt Q06708)
[2] = biological target: fig4_yeast FIG4 (UniProt P42837)
Chain of UniProt P42837 (P42837 whole entry): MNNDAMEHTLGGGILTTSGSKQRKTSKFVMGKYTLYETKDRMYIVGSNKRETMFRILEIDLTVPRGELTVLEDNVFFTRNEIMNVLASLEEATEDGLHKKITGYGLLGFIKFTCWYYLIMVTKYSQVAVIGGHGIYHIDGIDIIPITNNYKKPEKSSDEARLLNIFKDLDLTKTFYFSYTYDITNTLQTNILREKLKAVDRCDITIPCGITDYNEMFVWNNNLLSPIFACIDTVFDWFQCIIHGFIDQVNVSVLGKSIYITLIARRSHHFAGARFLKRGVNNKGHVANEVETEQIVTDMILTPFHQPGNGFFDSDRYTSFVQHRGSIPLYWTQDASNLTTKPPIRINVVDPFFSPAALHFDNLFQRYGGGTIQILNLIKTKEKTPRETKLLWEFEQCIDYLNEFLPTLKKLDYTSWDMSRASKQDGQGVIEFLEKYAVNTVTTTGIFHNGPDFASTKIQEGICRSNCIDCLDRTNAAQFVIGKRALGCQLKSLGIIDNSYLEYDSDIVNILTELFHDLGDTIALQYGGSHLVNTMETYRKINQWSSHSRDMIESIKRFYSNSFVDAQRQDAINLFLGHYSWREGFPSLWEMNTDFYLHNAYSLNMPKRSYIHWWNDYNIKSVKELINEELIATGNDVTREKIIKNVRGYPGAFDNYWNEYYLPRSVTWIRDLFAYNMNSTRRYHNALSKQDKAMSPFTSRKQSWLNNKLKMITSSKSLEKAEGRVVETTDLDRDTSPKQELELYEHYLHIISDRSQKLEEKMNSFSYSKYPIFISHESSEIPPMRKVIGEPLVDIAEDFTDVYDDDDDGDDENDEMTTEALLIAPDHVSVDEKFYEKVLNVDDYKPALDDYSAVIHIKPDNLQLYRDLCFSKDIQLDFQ

Chain of UniProt Q06708 (Q06708 whole entry): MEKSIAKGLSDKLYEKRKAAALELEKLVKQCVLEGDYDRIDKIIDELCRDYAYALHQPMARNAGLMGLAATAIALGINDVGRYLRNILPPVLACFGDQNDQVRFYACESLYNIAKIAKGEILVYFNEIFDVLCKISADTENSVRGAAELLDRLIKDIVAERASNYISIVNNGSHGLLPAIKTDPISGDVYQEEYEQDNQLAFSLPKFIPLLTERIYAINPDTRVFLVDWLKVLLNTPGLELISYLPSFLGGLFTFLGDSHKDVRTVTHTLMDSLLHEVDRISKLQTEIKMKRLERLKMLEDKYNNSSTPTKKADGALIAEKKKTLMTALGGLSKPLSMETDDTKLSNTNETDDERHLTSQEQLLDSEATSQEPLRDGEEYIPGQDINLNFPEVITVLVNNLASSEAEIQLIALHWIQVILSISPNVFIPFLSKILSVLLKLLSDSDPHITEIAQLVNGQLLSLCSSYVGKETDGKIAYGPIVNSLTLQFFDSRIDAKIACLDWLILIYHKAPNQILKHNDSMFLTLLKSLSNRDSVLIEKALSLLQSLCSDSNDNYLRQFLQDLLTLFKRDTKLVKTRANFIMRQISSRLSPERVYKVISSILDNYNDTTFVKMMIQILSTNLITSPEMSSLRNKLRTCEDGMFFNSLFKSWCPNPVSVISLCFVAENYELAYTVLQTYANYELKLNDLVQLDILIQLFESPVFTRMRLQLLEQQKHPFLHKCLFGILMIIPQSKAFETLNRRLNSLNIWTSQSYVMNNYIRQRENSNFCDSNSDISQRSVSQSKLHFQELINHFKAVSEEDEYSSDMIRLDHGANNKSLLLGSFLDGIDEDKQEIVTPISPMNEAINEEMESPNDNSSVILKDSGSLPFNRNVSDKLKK

1-phosphatidylinositol 3-phosphate 5-kinase FAB1 (Saccharomyces cerevisiae), P34756 G864E
effect of a mutation on the interaction [1]: disrupting interaction | effect of a mutation on the interaction [2]: disrupting interaction
